US20170306017A1 (VACCINEX, published 2017)
Read-outs that look alike come from different tables or passages of the source.

Key:
[1] = biological target: T1, marmoset CD100 (marmoset, UniProt A0A8I3W811 22-734); test: BIACORE surface plasmon resonance
T1 construct: also called marmCD100; monkey CD100
T1 sequence: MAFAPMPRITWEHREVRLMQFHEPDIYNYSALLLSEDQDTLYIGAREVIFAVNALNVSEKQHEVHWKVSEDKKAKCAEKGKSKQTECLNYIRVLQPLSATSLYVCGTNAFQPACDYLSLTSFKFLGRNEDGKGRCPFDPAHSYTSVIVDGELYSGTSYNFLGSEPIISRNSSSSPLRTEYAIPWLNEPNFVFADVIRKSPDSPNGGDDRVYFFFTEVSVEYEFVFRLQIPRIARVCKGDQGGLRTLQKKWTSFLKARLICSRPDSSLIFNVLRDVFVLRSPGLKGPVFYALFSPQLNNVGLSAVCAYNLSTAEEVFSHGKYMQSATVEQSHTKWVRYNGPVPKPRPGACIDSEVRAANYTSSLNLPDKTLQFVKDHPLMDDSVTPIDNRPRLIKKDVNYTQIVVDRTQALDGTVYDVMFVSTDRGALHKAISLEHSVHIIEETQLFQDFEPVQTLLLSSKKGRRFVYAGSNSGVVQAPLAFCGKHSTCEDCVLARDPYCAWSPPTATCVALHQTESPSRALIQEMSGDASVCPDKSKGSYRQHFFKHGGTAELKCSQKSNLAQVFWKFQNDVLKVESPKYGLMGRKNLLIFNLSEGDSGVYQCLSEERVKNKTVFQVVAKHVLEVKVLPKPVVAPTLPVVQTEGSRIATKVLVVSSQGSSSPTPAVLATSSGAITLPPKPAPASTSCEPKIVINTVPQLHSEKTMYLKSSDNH
Procedure: (§1) Binding affinities of anti-CD100 MAbs were determined using BIACORE® surface plasmon resonance technology.

[2] = biological target: T2, mouse CD100 (mouse, UniProt O09126 24-733, limits assumed); test: BIACORE surface plasmon resonance
T2 construct: also called murine CD100; muCD100
T2 sequence: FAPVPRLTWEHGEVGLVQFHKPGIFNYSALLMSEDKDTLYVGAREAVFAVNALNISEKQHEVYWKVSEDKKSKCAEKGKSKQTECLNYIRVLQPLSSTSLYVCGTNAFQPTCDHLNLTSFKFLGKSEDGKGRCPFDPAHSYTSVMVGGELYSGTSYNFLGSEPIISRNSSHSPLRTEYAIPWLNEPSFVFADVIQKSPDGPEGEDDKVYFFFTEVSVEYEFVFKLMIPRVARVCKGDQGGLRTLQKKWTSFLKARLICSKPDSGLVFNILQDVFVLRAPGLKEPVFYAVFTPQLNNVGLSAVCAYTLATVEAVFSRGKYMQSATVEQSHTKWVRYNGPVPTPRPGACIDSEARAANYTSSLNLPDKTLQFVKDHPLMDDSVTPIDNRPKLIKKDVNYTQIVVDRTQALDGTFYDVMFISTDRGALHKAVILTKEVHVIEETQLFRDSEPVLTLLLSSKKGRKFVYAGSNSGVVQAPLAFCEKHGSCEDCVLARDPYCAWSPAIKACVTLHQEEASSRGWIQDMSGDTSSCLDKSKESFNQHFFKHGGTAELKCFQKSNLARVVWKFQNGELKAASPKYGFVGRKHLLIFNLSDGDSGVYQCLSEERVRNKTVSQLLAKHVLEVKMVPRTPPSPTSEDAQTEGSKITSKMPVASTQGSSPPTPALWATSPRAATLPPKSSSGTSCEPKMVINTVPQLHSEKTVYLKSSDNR

[3] = biological target: T3, human CD100 (human, UniProt Q92854 22-734, limits assumed); test: BIACORE surface plasmon resonance
T3 construct: also called huCD100; SEMA4D
T3 sequence: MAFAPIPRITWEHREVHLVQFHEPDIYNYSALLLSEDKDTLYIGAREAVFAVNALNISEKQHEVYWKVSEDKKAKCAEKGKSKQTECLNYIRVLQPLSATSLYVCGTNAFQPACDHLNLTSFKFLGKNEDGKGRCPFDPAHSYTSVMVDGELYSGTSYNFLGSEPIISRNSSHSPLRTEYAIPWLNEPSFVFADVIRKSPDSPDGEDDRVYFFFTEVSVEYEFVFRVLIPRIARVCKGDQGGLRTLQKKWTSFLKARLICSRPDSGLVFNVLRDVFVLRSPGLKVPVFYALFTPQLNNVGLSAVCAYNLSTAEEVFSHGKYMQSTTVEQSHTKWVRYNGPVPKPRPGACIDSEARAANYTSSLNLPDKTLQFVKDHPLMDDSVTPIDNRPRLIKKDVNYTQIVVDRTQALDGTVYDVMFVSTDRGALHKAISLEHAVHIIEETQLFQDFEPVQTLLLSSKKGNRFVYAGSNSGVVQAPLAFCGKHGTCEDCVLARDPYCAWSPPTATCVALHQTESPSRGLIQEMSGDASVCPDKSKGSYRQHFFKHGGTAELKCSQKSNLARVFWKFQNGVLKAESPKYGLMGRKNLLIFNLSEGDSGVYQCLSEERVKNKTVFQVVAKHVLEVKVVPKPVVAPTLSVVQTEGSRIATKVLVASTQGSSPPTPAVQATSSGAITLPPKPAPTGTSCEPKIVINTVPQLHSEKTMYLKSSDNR

[4] = biological target: T2, mouse CD100; test: BIACORE surface plasmon resonance; remark: listed apart in the source
Procedure: as §1

[5] = biological target: T3, human CD100; test: BIACORE surface plasmon resonance; remark: listed apart in the source
Procedure: as §1

[6] = biological target: T4, human CD100-Fc (human, UniProt Q92854 22-734, limits assumed); test: competition ELISA on plate-coated human CD100-Fc; unlabelled antibody titrated first, competitor biotinylated MAb 67 detected with streptavidin-HRP
T4 sequence: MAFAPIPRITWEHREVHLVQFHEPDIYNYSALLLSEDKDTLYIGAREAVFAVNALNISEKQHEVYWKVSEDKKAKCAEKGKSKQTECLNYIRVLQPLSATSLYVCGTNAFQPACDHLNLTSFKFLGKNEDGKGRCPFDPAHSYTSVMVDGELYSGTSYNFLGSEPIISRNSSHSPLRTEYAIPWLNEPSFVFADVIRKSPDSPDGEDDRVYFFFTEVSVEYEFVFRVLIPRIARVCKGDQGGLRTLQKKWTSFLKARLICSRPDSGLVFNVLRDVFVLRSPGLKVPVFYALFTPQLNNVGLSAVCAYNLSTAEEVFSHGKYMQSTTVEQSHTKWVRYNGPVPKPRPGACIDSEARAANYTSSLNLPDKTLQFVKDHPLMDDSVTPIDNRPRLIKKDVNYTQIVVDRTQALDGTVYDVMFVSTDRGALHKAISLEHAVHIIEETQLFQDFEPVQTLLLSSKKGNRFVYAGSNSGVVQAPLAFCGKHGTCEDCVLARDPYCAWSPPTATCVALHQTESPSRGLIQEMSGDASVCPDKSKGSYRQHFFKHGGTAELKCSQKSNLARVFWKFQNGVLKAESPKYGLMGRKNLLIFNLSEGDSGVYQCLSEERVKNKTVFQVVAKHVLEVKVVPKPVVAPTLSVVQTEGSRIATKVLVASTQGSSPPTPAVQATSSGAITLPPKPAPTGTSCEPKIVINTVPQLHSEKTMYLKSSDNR
Procedure: For the ELISA protocol, an ELISA plate was coated with CD100-Fc. […] The antibodies were allowed to bind to CD100 and unbound antibody was wash away. Biotinylated MAb 67 was added. Biotinylated MAb 67 bound to CD100 was detected using Streptavidin-HRP.

B1: MAb 67 (antibody, IgG1, V domains shown)
VH: QVQLQQSGPELVKPGASVKISCKASGYSFSDYYMHWVKQSPENSLEWIGQINPTTGGASYNQKFKGKATLTVDKSSSTAYMQLKSLTSEESAVYYCTRYYYGRHFDVWGQGTTVTVSS
VL: DIVMTQSPASLAVSLGQRATISCKASQSVDYDGDSYMNWYQQKPGQPPKLLIYAASNLESGIPARFSGSGSGTDFTLNIHPVEEEDAATYYCQQSNEDPYTFGGGTKLEIK
notes: also called mouse MAb 67; murine MAb 67
[1]
  Kd: 2.7 nM

B2: MAb 76 (antibody, IgG2b, V domains shown)
VH: QVQLQQSGAELAKPGASVKMSCKASGYTFTRYWMHWVKQRPGQGLEWIGYINPSTGYSDYNQKFKDKATLTADKSSSTAYMQLSSLTSEDSAVYYCARDPYGWTMDSWGQGTLVTVSS
VL: DIQMTQSPSSLSASLGDTITITCHASQNINVWLSWYQQKPGNIPKLLIYKASNLHTGVPSRFSGSGSGTGFTLTISSLQPEDIATYYCQQGQSYPYTFGGGTKLEIK
notes: also called clone 76-1; 76-1
[2]
  Kd: 0.33 nM
[3]
  Kd: 0.12 nM

B3: MAb 2503 (antibody, V domains shown)
VH: QVQLVQSGAEVKKPGSSVKVSCKASGYSFSDYYMHWVRQAPGQGLEWMGQINPTTGGASYNQKFKGKATITVDKSTSTAYMELSSLRSEDTAVYYCARYYYGRHFDVWGQGTTVTVSS
VL: DIVMTQSPDSLAVSLGERATINCKASQSVDYDGDSYMNWYQQKPGQPPKLLIYAASNLESGVPDRFSGSGSGTDFTLTISSLQAEDVAVYYCQQSNEDPYTFGQGTKLEIK
notes: also called humanized MAb 67; H2160/L553
[4]
  Kd: 1.5 nM
[5]
  Kd: 5.4 nM
[1]
  Kd: 2.4 nM
[6]
  IC50 (read off the curve): ~0.2 nM
